Experimental data reported in article PMC12127886, “Mapping Hsp104 interactions using cross‐linking mass spectrometry” (FEBS Open Bio, 2025).
Blank lines part the entries; values can stand above or below the molecule they belong to.

Legend:
[1] = molecular target: Calcarisporiella thermophila CtHsp104ΔN (153–883 aa) (Calcarisporiella thermophila); experiment: SEC; purified Hsp104wt and Hsp104mt on a superdex-200 10/300GL column; molecular weights in Table S2
[2] = molecular target: CtHsp104ΔN2R encoding the R328M/R757M mutations (Calcarisporiella thermophila); experiment: as above
[3] = molecular target: the molecule itself; experiment: SEC; Hsp104fl and PCSK9 co-expressed in E. coli, complex purified by Ni-NTA, TEV cleavage and SEC; molecular weights in Table S2

- stoichiometry N [1]: 6
Molecule: Calcarisporiella thermophila CtHsp104ΔN (153–883 aa) (domain or fragment)

- stoichiometry N [2]: 6
Molecule: CtHsp104ΔN2R encoding the R328M/R757M mutations (domain or fragment)

B1: Thermochaetoides thermophila TtHsp104 full length (natural protein, UniProt A0A2Z6G185 1-926, looked up)
chain: MNSKMEFTDRAKKALEDAMALAEQYQHLQLQPVHLAVALLDPTPDPSKDQSAAPGTTSTLFRQVVERAHGDAQAFDRALKKKLVRLPSQDPPPDQVSMSAGCSSVLRKANELQKVQKDSYIAVDHLIAALAEDHTIQEALKEANIPKPKLVQDAIQAIRGNKRVDSRNADTEQENENLSKFCIDMTAMAREGKIDPVIGREEEIRRVIRILSRRTKNNPVLIGEPGVGKTTIVEGLAQRIVNADVPDNLAACKLLSLDVGALVAGSKYRGEFEERMKGVLKEIQESKETIILFVDEIHLLMGAGSSGEGGMDAANLLKPMLARGQLHCIGATTLAEYRKYIEKDAAFERRFQQVLVKEPSITETISILRGLKEKYEVHHGVNIADAAIVAAANLAARYLTSRRLPDSAVDLIDEAAAAVRVARESQPEIIDSLERRLRQLKIEIHALSREKDEASKARLAQAKQDAQNVEEELRPLREKYERERQRGKAIQEAKMKLEALRVKAEDASRMGDHSRAADLQYYAIPEQEAIIKRLEAEKAAADAALNANGADVGGSMITDVVGPDQINEIVARWTGIPVTRLKTSEKEKLLHMEQALSKIVVGQKEAVQSVSNAIRLQRSGLSNPNQPPSFLFCGPSGTGKTLLTKALAEFLFDDPKSMIRFDMSEYQERHSLSRMIGAPPGYVGHDAGGQLTEALRRRPFSILLFDEVEKAAKEVLTVLLQLMDDGRITDGQGRVVDAKNCIVVMTSNLGAEYLSRANNGKDGKIDPTTRELVMNTLRNYFLPEFLNRISSIVIFNRLTRREIRKIVDLRIAEIQKRLTDNDRNVTIKVSDEAKDKLGAQGYSPVYGARPLQRLLEKEVLNRLAILILRGQIREGEVACVELVDGKVQVLPNHPDSEPEDVDVDMESDDAVDEVAPDSMDEDIYND
notes: Hsp104 of Thermochaetoides thermophila, full length; Hexamer in the complex with PCSK9 by SEC; also called Hsp104fl; source: E. coli BL21, co-expressed with PCSK9, complex purified (Ni-NTA, TEV cleavage, SEC)
- stoichiometry N [3]: 6
